Drawing on doi:10.1101/2023.03.13.532361, this text covers stoichiometry N for one substance.

The test deals with SLA dehydrogenase RlGabD from Rhizobium leguminosarum SRDI565 (Rhizobium leguminosarum SRDI565). Briefly: SEC-MALS. In general terms: In gel filtration, larger molecules generally elute earlier.

For the substance “SLA dehydrogenase RlGabD from Rhizobium leguminosarum SRDI565 (enzyme)”, the stoichiometry N stood at 4.

As usually defined, the stoichiometry N is a count of units in the complex or per binding partner.
